The assay has as its target human CD81 large extracellular loop fused to glutathione S-transferase (UniProt P60033). The assay is described as follows: CD81 binding assay (immobilized GST-CD81 LEL capture of E1E2 from cell lysate, detection with anti-E2 serum R646). As to conditions: lysate concentration normalized for reactivity with AP33 and ALP98 mAbs in a GNA ELISA; mock signal subtracted; triplicate; parent: est. 100; read off a plot. A general note: An ELISA detects its analyte on a solid surface through an enzyme-linked reagent.
UniProt P60033, sequence (P60033 113-201): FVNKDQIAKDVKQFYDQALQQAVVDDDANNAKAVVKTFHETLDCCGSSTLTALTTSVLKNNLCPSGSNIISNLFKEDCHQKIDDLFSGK
Regarding “HCV envelope glycoprotein E1, wild type (genotype 1a strain H77c) (from UniProt P27958) in218 (VFKHD inserted after D218)”, the percent of parent was 93 % of WT.
In the case of “HCV envelope glycoprotein E1, wild type (genotype 1a strain H77c) (from UniProt P27958) in263 (CLNID inserted after D263)” it was 93 % of WT; in that of “HCV envelope glycoprotein E1, wild type (genotype 1a strain H77c) (from UniProt P27958) in324 (FKQMM inserted after M324)”, 88 % of WT; in that of “HCV envelope glycoprotein E1, wild type (genotype 1a strain H77c) (from UniProt P27958) in341 (LFKHP inserted after P341)”, 100 % of WT.
In the case of “HCV envelope glycoprotein E1, wild type (genotype 1a strain H77c) (from UniProt P27958) in343 (CLNKA inserted after A343)” it was 66 % of WT.
With “HCV envelope glycoprotein E2, wild type (genotype 1a strain H77c) (from UniProt P27958) in413 (MFKQL inserted after L413)” the figure was 72 % of WT; with “HCV envelope glycoprotein E2, wild type (genotype 1a strain H77c) (from UniProt P27958) in422 (MFKHI inserted after I422)”, 22 % of WT.
In the case of “HCV envelope glycoprotein E2, wild type (genotype 1a strain H77c) (from UniProt P27958) in424 (CLNNS inserted after S424)”, the percent of parent was 25 % of WT.
With “HCV envelope glycoprotein E2, wild type (genotype 1a strain H77c) (from UniProt P27958) in531 (MFKHA inserted after A531)” the figure was 18 % of WT; with “HCV envelope glycoprotein E2, wild type (genotype 1a strain H77c) (from UniProt P27958) in533 (CLNND inserted after D533)”, 19 % of WT; with “HCV envelope glycoprotein E2, wild type (genotype 1a strain H77c) (from UniProt P27958) in540 (CLNIN inserted after N540)”, 59 % of WT.
With “HCV envelope glycoprotein E2, wild type (genotype 1a strain H77c) (from UniProt P27958) in549 (CLNNW inserted after W549)” the figure was 45 % of WT; with “HCV envelope glycoprotein E2, wild type (genotype 1a strain H77c) (from UniProt P27958) in573 (CLNRG inserted after G573)”, 98 % of WT.
In the case of “HCV envelope glycoprotein E2, wild type (genotype 1a strain H77c) (from UniProt P27958) in587 (CLNIR inserted after R587)” it was 83 % of WT.
As for “HCV envelope glycoprotein E2, wild type (genotype 1a strain H77c) (from UniProt P27958) in611 (LFKHY inserted after Y611)”, the percent of parent is 34 % of WT.
In the case of “HCV envelope glycoprotein E2, wild type (genotype 1a strain H77c) (from UniProt P27958) in614 (LFKHR inserted after R614)” it was 25 % of WT.
With “HCV envelope glycoprotein E2, wild type (genotype 1a strain H77c) (from UniProt P27958) in620 (CLNTC inserted after C620)” the figure was 23 % of WT.
In the case of “HCV envelope glycoprotein E2, wild type (genotype 1a strain H77c) (from UniProt P27958) in630 (CLNIR inserted after R630)” it was 33 % of WT.
On to “HCV envelope glycoprotein E2, wild type (genotype 1a strain H77c) (from UniProt P27958) in682 (LFKHL inserted after L682)”, for which the percent of parent was 83 % of WT.
In the case of “HCV envelope glycoprotein E2, wild type (genotype 1a strain H77c) (from UniProt P27958) in692 (LFKHL inserted after L692)” it was 82 % of WT.
In the case of “HCV envelope glycoprotein E2, wild type (genotype 1a strain H77c) (from UniProt P27958) in726 (FKHLL inserted after L726)” it was 72 % of WT; in that of “HCV envelope glycoprotein E2, wild type (genotype 1a strain H77c) (from UniProt P27958) in732 (CLNIC inserted after C732)”, 77 % of WT; in that of “HCV envelope glycoprotein E2, wild type (genotype 1a strain H77c) (from UniProt P27958) in734 (CLNTC inserted after C734)”, 96 % of WT.

These data come from publication PMC3347801.
